The values that follow come from patent publication US20180118802A1 (published 2018).

B1: RAP d3 (ligand, not shown: small tags and cut ends)
chain: LDRLRRVSHQGYSTEAEFEEPRVIDLWDLAQSANLTDKELEAFREELKHFEAKIEKHNHYQKQLEIAHEKLRHAESVGDGERVSRSREKHALLEGRTKELGYTVKKHLQDLSGRISRAR
notes: also called wild-type RAP d3

Where two headings read alike, the source gives them in different places.

One experiment deals with T1, LRP2 CR89 Y1042W (human, UniProt P98164 1022-1105).
T1 construct: also called WVWR
T1 sequence: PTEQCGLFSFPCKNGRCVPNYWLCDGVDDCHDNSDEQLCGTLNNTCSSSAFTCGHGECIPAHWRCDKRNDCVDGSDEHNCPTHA
Put plainly: solid-phase binding assay, CR protein coated, anti-RAP detection. As for the experimental part:
(§1) Solid phase binding assays—Purified, refolded CR protein (1 μg) was bound to Nunc Maxisorp™ 96-well plates in TBS pH 8 supplemented with 5 mM CaCl₂ (TBSC) overnight at 4° C. Wells were washed with TBSC and then blocked with TBSC containing 2% bovine serum albumin (BSA). RAP ligands were then incubated with the immobilized receptor at a range of concentrations for 2 hours in the above blocking buffer supplemented with 0.05% Tween-20 at room temperature. Control wells contained no added ligand. As an additional control, to determine whether the absence of calcium affected binding, 10 mM EGTA was included in the incubation medium for some samples. Wells were washed with TBSTC and bound ligands detected with polyclonal anti-RAP (BP41/42, 1:1,000, BioMarin). Excess primary antibody was removed and wells washed before incubation with the secondary antibody, HRP-conjugated goat anti rabbit IgG (Bio-Rad). After washing, TMB substrate solutions (Bio-Rad) were added to detect HRP. Color development was stopped with 1N HCl. Absorption at 450 nm was measured with a microplate spectrophotometer (Molecular Devices). Data were plotted and Kd values derived by non-linear regression with the assumption of single-site binding (GraphPad Prism).
(§2) One premise of this work was that amino acids at A, C, A′ and C′ within the calcium-binding loops of a CR pair were key determinants of binding affinity for RAP and would be similarly important for binding of RAP variants. To test this idea, mutant LRP2 CR89 were prepared in which the native, non-canonical residues at these positions were sequentially substituted with the non-native, canonical residues. As defined above, the A, C, A′, C′ string for LRP2 CR89 is YVWR. Mutants included LRP2 CR89 Y1042W (WVWR), LRP2 CR89 V1047D (YDWR), LRP2 CR89 R1088D (YVWD), LRP2 CR89 V1047D R1088D (YDWD), LRP2 CR89 Y1042W V1047D R1088D (WDWD), LRP2 CR89 Y1042W V1047D (WDWR), LRP2 CR89 Y1042W R1088D (WVWD). Binding to both RAP d3 and MegaRAP1 d3 were measured for each LRP2 CR89 mutant by solid-phase assay.

The target in another experiment is T2, LRP2 CR89 R1088D (human, UniProt P98164 1022-1105).
T2 construct: also called YVWD
Described as above. As for the experimental part:
as §1, §2

Another experiment concerns the target T3, LRP2 CR89 V1047D (human, UniProt P98164 1022-1105).
T3 construct: also called YDWR
T3 sequence: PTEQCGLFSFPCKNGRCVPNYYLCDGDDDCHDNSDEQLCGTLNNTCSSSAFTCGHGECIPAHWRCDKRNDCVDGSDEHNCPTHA
The experiment is described as above. The protocol: as §1, §2

The target of experiment [1] is T4, LRP2 CR89 Y1042W V1047D R1088D (human, UniProt P98164 1022-1105).
T4 construct: also called WDWD
T4 sequence: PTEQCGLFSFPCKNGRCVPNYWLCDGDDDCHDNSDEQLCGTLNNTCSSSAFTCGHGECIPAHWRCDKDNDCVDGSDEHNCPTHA
The experiment is described as above. The protocol:
as §1, §2

The target in another experiment is T5, LRP2 CR89 Y1042W R1088D (human, UniProt P98164 1022-1105).
T5 construct: also called WVWD
T5 sequence: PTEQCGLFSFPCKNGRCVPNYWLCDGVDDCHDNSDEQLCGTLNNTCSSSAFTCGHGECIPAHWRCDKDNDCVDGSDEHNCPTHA
The description is as above. The protocol:
as §1, §2

A further experiment deals with T6, LRP2 CR89 V1047D R1088D (human, UniProt P98164 1022-1105).
T6 construct: also called YDWD
T6 sequence: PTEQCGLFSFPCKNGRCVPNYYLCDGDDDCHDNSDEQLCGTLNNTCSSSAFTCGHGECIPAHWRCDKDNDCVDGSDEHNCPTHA
The description is as above. As for the experimental part:
as §1, §2

The target in experiment [2] is T7, LRP2 CR89 (human, UniProt P98164 1025-1102).
T7 construct: domain: CR89; also called YVWR; not shown: N-terminal hexahistidine and S-peptide of pET30(+)a
Described as above. The protocol: as §1, §2

The target of experiment [3] is T7, LRP2 CR89. The experiment is described as above. The protocol: (§3) Wells were washed with TBSTC and bound ligands detected with polyclonal anti-RAP (BP41/42, 1:1,000, BioMarin). Excess primary antibody was removed and wells washed before incubation with the secondary antibody, HRP-conjugated goat anti rabbit IgG (Bio-Rad). After washing, TMB substrate solutions (Bio-Rad) were added to detect HRP. Color development was stopped with 1N HCl. Absorption at 450 nm was measured with a microplate spectrophotometer (Molecular Devices). Data were plotted and Kd values derived by non-linear regression with the assumption of single-site binding (GraphPad Prism).
(§4) Next, the binding of RAP d3 and MegaRAP1 d3 proteins to LRP1 CR3-5 and LRP2 CR89 was assessed. […] In all cases, 10 mM EGTA prevented binding of both RAP d3 and MegaRAP1 d3 to CR proteins. Since calcium was the only divalent metal ion present in the binding buffer, this observation is consistent with both RAP d3 and MegaRAP1 d3 binding to calcium-loaded CR pairs. […] Therefore, wild-type RAP d3 and MegaRAP1 d3 have inverted binding preferences for these two receptor fragments.
The source holds these as a separate data set.

Experiment [4] addresses T8, LRP1 CR3-5 (human, UniProt Q07954 852-973).
T8 construct: range 852-973; not shown: N-terminal hexahistidine and S-peptide of pET30(+)a
The description is as above. The protocol: as §3, §4

Another experiment concerns the target T9, VLDLR CR6-8 (human, UniProt P98155 235-358).
T9 construct: range 235-358; not shown: N-terminal hexahistidine and S-peptide of pET30(+)a
The description is as above. The source says: (§5) Alternatively, the affinity differences between MegaRAP I d3 and MegaRAP1 d3 E270K may have been insufficient to alloW the latter to predominate upon iterative panning. A double revertant, T213S, E270K, had binding behavior that was not distinguishable from MegaRAP1 d3 in our assays. […] The binding behavior of the K251E, E270K double revertant implies a strong dependence of the affinity of MegaRAP1 d3 for LRP2 CR89 on the E251K mutation. […] Therefore, the K256A mutation in MegaRAP1 d3 is a crucial determinant of the ability of this variant to discriminate between the two receptor fragments, exerting its effect by negatively impacting affinity for LRP1 CR3-5 while at the same time improving affinity for LRP2 CR89.

Experiment [5] has as its target T8, LRP1 CR3-5. The description is as above.
Source text: as §5
The source holds these as a separate data set.

Experiment [6] addresses T8, LRP1 CR3-5. The experiment is described as above. As for the experimental part:
as §1
This is another data set of the same source.

A further experiment has as its target T10, LRP2 CR89 Y1042W V1047D (human, UniProt P98164 1022-1105).
T10 construct: also called WDWR
T10 sequence: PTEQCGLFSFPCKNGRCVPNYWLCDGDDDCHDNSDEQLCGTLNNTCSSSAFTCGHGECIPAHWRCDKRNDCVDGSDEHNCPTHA
Described as above. As for the experimental part:
as §1, §2

The experiment “RAP d3” concerns the target B1. Put plainly: solid-phase binding assay, ligand at 80 nM, CR protein coated (FIG. 7). As for the experimental part: as §1
The apparent dissociation constant for binding of VRAP1 d3 to VLDLR CR78 was determined to be 44±9 nM. […]

T8 sequence (Q07954 852-973, form in doubt): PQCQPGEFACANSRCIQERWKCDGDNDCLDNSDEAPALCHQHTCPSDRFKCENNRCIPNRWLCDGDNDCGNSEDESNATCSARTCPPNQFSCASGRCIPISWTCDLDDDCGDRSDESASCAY
T7 sequence (P98164 1025-1102): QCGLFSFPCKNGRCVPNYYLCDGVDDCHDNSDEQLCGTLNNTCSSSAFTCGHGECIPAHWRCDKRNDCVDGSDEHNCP

One may read the Kd as the constant that tells how readily two partners part at equilibrium. Higher therefore signals lower affinity. Regarding B1, the “% max bind” value with LRP2 CR89 Y1042W was found to be 9%; with LRP2 CR89 R1088D, 7%; with LRP2 CR89 V1047D, 6%; in experiment [1], 15%; with LRP2 CR89 Y1042W R1088D it was 16%; in the experiment with LRP2 CR89 V1047D R1088D it was 6%. In addition, in the experiment with LRP2 CR89 [2], the “% max bind” value was determined as 7%. Further, the “% max” value with LRP2 CR89 [3] was 5%; in the experiment with LRP1 CR3-5 [4], 76%. Besides, the Kd with LRP1 CR3-5 [4] is 16 nM; with VLDLR CR6-8 it was over 300 nM; in the experiment with LRP1 CR3-5 [5] it was 11 nM; with LRP1 CR3-5 [6], 16 nM.

B2: MegaRAP1 d3 (ligand, not shown: small tags and cut ends)
chain: LDRLRRVSHQGYTTEAKFEEPRVIDLWDLAQSANLTDKELEAFREELKYFKAKIEAHNHYQKQLEIAHEELRHAESVGDGERVSRSREKHALLEGRTKELGYTVKKHLQDLSGRISRAR
notes: also called RAPv2A d3; RAP v2
Consider B2, for which the “% max bind” value with LRP2 CR89 Y1042W is 5%. Moreover, the binding result (with LRP2 CR89 Y1042W; in the experiment with LRP2 CR89 Y1042W V1047D; in the experiment with LRP2 CR89 V1047D; in experiment [1]; in the experiment with LRP2 CR89 Y1042W R1088D; in the experiment with LRP2 CR89 V1047D R1088D) was “no binding” in each case.

B3: MAT CR12 (other)
chain: PCPGQFTCRTGRCIRKELRCDGWADCTDHSDELNCSCDAGHQFTCKNKFCKPLFWVCDSVNDCGDNSDEQGCS
notes: also called ST14 CR12; not shown: N-terminal hexahistidine/S-peptide tag of pET30(+)a
With B3, the binding result with RAP d3 is “no binding (tested: 80 nM)”.
